Experimental findings from patent US6348586 are described below.

This test has as its target human CCR5 transiently expressed on CCC/CD4 cells (human) (UniProt P51681). In words: cell-based or functional assay. As to conditions: scale: fraction of the reverse-construct negative control.
Sequence of UniProt P51681 (P51681 whole entry): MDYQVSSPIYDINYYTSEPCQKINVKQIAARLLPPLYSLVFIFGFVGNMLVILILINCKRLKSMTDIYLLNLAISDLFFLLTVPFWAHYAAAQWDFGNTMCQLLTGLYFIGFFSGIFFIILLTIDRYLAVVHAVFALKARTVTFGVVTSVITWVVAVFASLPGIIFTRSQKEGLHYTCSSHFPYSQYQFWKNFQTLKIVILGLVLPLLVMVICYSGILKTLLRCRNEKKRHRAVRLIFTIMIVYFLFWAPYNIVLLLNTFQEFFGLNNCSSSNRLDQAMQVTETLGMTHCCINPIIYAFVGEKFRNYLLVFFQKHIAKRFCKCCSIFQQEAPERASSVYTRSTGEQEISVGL

In the case of “KSHV viral macrophage inflammatory protein I (vMIP-I) encoded by ORF K6 (ligand)”, the NSI HIV-1 foci generation (immunostaining for retroviral antigen) in CCC/CD4 cells cotransfected with CCR5 and vMIP-I was less than 0.5.
